Data: PMC9410881

Key:
Aca10 D7K variant = test: SEC-MALS; details: parent: 17.39
[1] = biological target: Aca10 from Pseudomonas citronellolis (pcAca10), wild type (Pseudomonas citronellolis); test: SEC-MALS; Superdex 200 Increase 10/300 GL, SEC buffer (20 mM Tris-HCl pH 8.0, 150 mM NaCl), 0.5 ml/min, 20°C; self-association of Aca10
Aca10 G49Y mutant = test: SEC-MALS; details: parent: 17.39
Aca10 E52R mutant = test: SEC-MALS; details: parent: 17.39

Aca10 from Pseudomonas citronellolis (pcAca10), wild type D7K
other: MALS molecular weight (MW) (Aca10 D7K variant): 17 kDa

Aca10 from Pseudomonas citronellolis (pcAca10), wild type (natural protein)
stoichiometry N [1]: 2

Aca10 from Pseudomonas citronellolis (pcAca10), wild type G49Y
other: MALS molecular weight (MW) (Aca10 G49Y mutant): 10.2 kDa

Aca10 from Pseudomonas citronellolis (pcAca10), wild type E52R
other: MALS molecular weight (MW) (Aca10 E52R mutant): 14.2 kDa
